Assay results from article PMC4133399.

Legend:
[1] = target: GpA G83I TMD (LexA-TMD-MBP chimera); experiment: GALLEX assay (β-gal activity of LexA-TMD-MBP chimera proteins); conditions: n = 3; strong dimerization results in low β-gal activity; parent: est. 20; read off a plot
[2] = target: LexA-TMD-MBP chimera protein with the TLR2 TMD (GALLEX) (UniProt O60603); experiment: as above; conditions: n = 3; strong dimerization results in low β-gal activity; parent: est. 48; read off a plot
[3] = target: NBD-labelled gp41 TMD peptide (HIV-1); experiment: FRET or BRET; NBD-labelled gp41 TMD or mutant peptide (donor, 0.1 µM) in PC∶Chol 9∶1 LUVs, titrated with Rho-labelled TLR2 TMD peptide at 1∶40, 1∶20, 1∶10 and 1∶1 acceptor∶donor; decrease of donor emission at 530 nm
[4] = target: NBD-labelled gp41 mutant peptide (HIV-1); experiment: as above
[5] = target: TLR2 protein of RAW264.7 murine macrophages (mouse (endogenous in RAW264.7)) (UniProt Q9QUN7)
Chain of UniProt Q9QUN7 (Q9QUN7 25-784): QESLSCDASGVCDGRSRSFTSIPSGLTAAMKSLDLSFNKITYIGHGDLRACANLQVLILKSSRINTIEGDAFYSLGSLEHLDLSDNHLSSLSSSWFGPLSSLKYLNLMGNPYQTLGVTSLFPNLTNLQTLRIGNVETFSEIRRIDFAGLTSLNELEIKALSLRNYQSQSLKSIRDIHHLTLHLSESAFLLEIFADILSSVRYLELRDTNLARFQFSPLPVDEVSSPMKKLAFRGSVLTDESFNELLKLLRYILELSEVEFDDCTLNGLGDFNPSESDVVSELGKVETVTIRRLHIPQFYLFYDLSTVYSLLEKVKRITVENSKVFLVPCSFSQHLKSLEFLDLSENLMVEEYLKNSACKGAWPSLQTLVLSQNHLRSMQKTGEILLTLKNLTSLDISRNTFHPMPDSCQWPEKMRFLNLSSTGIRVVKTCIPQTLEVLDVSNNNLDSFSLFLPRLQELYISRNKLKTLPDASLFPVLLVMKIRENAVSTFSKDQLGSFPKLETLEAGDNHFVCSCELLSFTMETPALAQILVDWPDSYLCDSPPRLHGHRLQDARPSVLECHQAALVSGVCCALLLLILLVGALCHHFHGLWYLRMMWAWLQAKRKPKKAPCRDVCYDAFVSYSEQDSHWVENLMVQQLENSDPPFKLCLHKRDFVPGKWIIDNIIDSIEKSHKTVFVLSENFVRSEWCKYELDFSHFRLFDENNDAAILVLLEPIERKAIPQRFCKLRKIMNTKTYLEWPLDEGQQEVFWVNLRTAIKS

[6] = target: TLR2 protein of RAW264.7 murine macrophages (mouse (endogenous in RAW264.7)) (UniProt Q9QUN7); remark: listed apart in the source

Chain of UniProt O60603 (O60603 21-784, change not shown): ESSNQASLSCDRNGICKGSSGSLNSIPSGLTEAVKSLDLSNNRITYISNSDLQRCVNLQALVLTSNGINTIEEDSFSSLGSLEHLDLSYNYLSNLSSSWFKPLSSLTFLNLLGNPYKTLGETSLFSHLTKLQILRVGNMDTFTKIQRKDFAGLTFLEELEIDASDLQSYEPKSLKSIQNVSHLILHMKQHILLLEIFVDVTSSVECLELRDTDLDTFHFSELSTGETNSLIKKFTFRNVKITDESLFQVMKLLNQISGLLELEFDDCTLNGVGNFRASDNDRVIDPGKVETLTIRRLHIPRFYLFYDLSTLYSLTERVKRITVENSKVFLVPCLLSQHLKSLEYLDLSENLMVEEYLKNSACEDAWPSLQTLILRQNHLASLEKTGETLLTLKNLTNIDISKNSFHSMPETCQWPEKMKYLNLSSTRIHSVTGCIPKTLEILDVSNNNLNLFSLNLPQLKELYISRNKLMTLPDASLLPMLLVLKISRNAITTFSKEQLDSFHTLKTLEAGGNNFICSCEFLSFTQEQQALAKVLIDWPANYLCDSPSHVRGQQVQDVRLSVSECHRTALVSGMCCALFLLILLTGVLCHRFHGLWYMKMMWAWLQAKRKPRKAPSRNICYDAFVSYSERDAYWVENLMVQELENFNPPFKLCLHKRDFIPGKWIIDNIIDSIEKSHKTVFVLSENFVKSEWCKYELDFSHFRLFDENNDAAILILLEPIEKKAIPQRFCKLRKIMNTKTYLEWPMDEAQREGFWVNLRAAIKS

Substance: LexA-TMD-MBP chimera protein with the Glycophorin A (GpA) TMD (GALLEX) G83I
- response [1]: 100%

Substance: LexA-TMD-MBP chimera protein with the gp41 wild type TMD (GALLEX) (from UniProt P04578) gp41 mutant
- response [2]: 68%

Substance: Rho-labeled TLR2 TMD peptide
- decrease of the NBD donor emission at 530 nm (FRET) at 1∶1 ratio [3]: > 60%
- decrease of the NBD donor emission at 530 nm (FRET) [4]: < 25%

Substance: unlabeled WT gp41 TMD peptide
- ERK1,2 phosphorylation in RAW264.7 cells 20 minutes after LTA, cells pre-treated with the peptide for 2 hours (decrease of p-ERK band intensity) [5]: > 50%
- MCP1 mRNA expression in LTA-activated RAW264.7 cells (real-time PCR), decrease against non-treated cells [6]: 45%
- TNFα mRNA expression in LTA-activated RAW264.7 cells (real-time PCR), decrease against non-treated cells [6]: 72%
